The results in this text go back to patent publication US20220380445A1 (Ablynx, published 2022).

Substitutions are numbered along the chain they refer to. Names and notes keep the numbering of the source.

First the molecules themselves.
B1: SEQ ID NO 10 (VHH)
VHH: EVQLVESGGGVVQPGGSLRLSCAASGFTFRSFGMSWVRQAPGKGPEWVSSISGSGSDTLYADSVKGRFTISRDNSKNTLYLQMNSLRPEDTALYYCTIGGSLSRSSQGTLVTVSS
notes: also called R at position 30
B2: SEQ ID NO 145 (VHH)
VHH: B1 VHH with E1D, R30T, L93A, S106G
notes: also called T at position 30
B3: SEQ ID NO 129 (VHH)
VHH: B1 VHH with E1D, R30T, L93T, S106G
notes: also called T at position 30
B4: SEQ ID NO 127 (VHH)
VHH: B1 VHH with E1D, R30T, S106G
notes: also called T at position 30
B5: Reference A+L11V+V89T+C-terminal alanine, N-terminal HIS6 tag (VHH)
VHH: B1 VHH with L93T
B6: Reference A+L11V+V89T+T110K+C-terminal alanine, N-terminal HIS6 tag (VHH)
VHH: HHHHHHEVQLVESGGGVVQPGGSLRLSCAASGFTFRSFGMSWVRQAPGKGPEWVSSISGSGSDTLYADSVKGRFTISRDNSKNTLYLQMNSLRPEDTATYYCTIGGSLSRSSQGTLVKVSSA
B7: Reference A+L11V+V89T+S104T+C-terminal alanine, N-terminal HIS6 tag (VHH)
VHH: B1 VHH with L93T, S106T
B8: Reference A+L11V+V89L+S104G+C-terminal alanine, N-terminal HIS6 tag (VHH)
VHH: B1 VHH with S106G
B9: Reference A+L11V+V89A+C-terminal alanine, N-terminal HIS6 tag (VHH)
VHH: B1 VHH with L93A
B10: Reference A+L11V+V89A+T110K+C-terminal alanine, N-terminal HIS6 tag (VHH)
VHH: B6 VHH with T99A
B11: Reference A+L11V+V89L+S101E+C-terminal alanine, N-terminal HIS6 tag (VHH)
VHH: B1 VHH with S103E
B12: Reference A+L11V+V89L+S101G+C-terminal alanine, N-terminal HIS6 tag (VHH)
VHH: B1 VHH with S103G
B13: Reference A+L11V+V89L+S104A+C-terminal alanine, N-terminal HIS6 tag (VHH)
VHH: B1 VHH with S106A
B14: Reference A+L11V+S31D+V89L+C-terminal alanine, N-terminal HIS6 tag (VHH)
VHH: B1 VHH with S31D
B15: Reference A+L11V+V89S+C-terminal alanine, N-terminal HIS6 tag (VHH)
VHH: B1 VHH with L93S
B16: Reference A+L11V+R30T+V89L+C-terminal alanine, N-terminal HIS6 tag (VHH)
VHH: B1 VHH with R30T
B17: Reference A+L11V+V89S+T110K+C-terminal alanine, N-terminal HIS6 tag (VHH)
VHH: B6 VHH with T99S
B18: Reference A+L11V+V89N+T110K+C-terminal alanine, N-terminal HIS6 tag (VHH)
VHH: B6 VHH with T99N
B19: Reference A+L11V+V89N+C-terminal alanine, N-terminal HIS6 tag (VHH)
VHH: B1 VHH with L93N
B20: Reference A+L11V+V89L+S101H+C-terminal alanine, N-terminal HIS6 tag (VHH)
VHH: B1 VHH with S103H
B21: Reference A+L11V+V89L+R102D+C-terminal alanine, N-terminal HIS6 tag (VHH)
VHH: B1 VHH with R104D

The target of the first test is T1, human serum albumin (human, UniProt P02768 25-609).
T1 construct: Amine-coupled to the chip (EDC/NHS); also called HSA
T1 sequence (P02768 25-609 limits assumed): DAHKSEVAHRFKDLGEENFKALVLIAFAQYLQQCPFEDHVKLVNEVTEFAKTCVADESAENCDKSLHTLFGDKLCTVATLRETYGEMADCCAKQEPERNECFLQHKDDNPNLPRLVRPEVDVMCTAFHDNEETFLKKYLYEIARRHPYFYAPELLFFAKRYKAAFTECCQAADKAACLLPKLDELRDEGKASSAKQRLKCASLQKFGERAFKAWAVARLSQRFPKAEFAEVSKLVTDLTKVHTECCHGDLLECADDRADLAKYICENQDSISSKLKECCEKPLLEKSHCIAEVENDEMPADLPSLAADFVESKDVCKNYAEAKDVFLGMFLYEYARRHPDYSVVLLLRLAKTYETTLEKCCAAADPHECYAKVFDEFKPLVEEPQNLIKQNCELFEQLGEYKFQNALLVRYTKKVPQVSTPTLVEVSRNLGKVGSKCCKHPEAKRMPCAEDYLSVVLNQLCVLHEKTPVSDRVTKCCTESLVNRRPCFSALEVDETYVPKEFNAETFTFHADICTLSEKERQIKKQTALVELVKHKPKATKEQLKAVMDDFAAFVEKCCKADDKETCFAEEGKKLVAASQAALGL
In words: ProteOn kinetic analysis.
The Kd is the constant that tells how readily two partners part at equilibrium. As usually defined, the koff is the first-order rate constant of dissociation. A higher koff goes with fast dissociation. Usually kon stands for a measure of how fast the partners come together. Lower therefore signals slower complex formation. The molecule B1 showed a Kd of 0.83 nM, a koff of 0.00084 s⁻¹ and a kon of 1e+06 M⁻¹ s⁻¹.

The molecule B2 returned a Kd of 2.1 nM, a koff of 0.0014 s⁻¹ and a kon of 690000 M⁻¹ s⁻¹.

B3 came in with a Kd of 2.1 nM, a koff of 0.0015 s⁻¹ and a kon of 710000 M⁻¹ s⁻¹.

In turn, B4 showed a Kd of 2 nM, a koff of 0.0014 s⁻¹ and a kon of 730000 M⁻¹ s⁻¹.

The target of another test is guinea pig serum albumin (guinea pig). In words: ProteOn kinetic analysis.
B1 registered a Kd of 5.1 nM, an off-rate constant (koff) of 0.0063 s⁻¹ and a kon of 1.2e+06 M⁻¹ s⁻¹.

With B2, the Kd turned out to be 13 nM, the dissociation rate constant (koff) is 0.01 s⁻¹ and the kon was 790000 M⁻¹ s⁻¹.

B3 registered a Kd of 13 nM, a koff of 0.0098 s⁻¹ and a kon of 790000 M⁻¹ s⁻¹.

B4 yielded a Kd of 8.6 nM, a koff of 0.0075 s⁻¹ and a kon of 870000 M⁻¹ s⁻¹.

The target of another test is rat serum albumin (rat, UniProt P02770 25-608). In words: ProteOn kinetic analysis.
rat serum albumin, sequence (P02770 25-608 limits assumed): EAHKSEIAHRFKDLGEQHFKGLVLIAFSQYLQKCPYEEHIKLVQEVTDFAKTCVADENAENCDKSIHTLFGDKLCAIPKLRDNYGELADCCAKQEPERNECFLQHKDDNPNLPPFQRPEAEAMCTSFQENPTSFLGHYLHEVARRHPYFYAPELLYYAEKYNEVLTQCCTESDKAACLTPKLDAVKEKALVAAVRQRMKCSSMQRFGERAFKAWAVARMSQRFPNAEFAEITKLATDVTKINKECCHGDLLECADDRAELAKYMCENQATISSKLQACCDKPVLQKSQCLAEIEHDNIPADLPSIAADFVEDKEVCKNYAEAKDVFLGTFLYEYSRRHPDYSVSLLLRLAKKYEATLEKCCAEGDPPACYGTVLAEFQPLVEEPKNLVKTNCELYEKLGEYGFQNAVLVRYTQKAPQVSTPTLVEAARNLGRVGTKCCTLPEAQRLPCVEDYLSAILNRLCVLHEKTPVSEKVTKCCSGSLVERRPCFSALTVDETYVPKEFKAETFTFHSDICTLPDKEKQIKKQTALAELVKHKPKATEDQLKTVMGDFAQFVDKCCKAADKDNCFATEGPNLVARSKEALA
Take B1: the Kd was 180 nM, the koff amounted to 0.13 s⁻¹ and the kon worked out at 710000 M⁻¹ s⁻¹.

On to B2, for which binding was characterised by a dissociation constant (Kd) of 540 nM, the koff turned out to be 0.23 s⁻¹ and the kon came to 420000 M⁻¹ s⁻¹.

The molecule B3 came in with a Kd of 490 nM, a koff of 0.21 s⁻¹ and a kon of 430000 M⁻¹ s⁻¹.

In the case of B4, the Kd turned out to be 490 nM, the koff turned out to be 0.22 s⁻¹ and the kon is 450000 M⁻¹ s⁻¹.

The target in a further test is mouse serum albumin (mouse, UniProt P07724 25-608). As to the kind of experiment: ProteOn kinetic analysis.
B1 had a Kd of 6.8 nM, a koff of 0.0073 s⁻¹ and a kon of 1.1e+06 M⁻¹ s⁻¹.

B2 yielded a Kd of 27 nM, a koff of 0.02 s⁻¹ and a kon of 750000 M⁻¹ s⁻¹.

B3 had a Kd of 27 nM, a koff of 0.021 s⁻¹ and a kon of 770000 M⁻¹ s⁻¹.

Molecule B4 came in with a Kd of 21 nM, a koff of 0.017 s⁻¹ and a kon of 820000 M⁻¹ s⁻¹.

The target in the next test is cyno serum albumin (cyno, UniProt A2V9Z4 25-608). As to the kind of experiment: ProteOn kinetic analysis.
cyno serum albumin, sequence (A2V9Z4 25-608 limits assumed): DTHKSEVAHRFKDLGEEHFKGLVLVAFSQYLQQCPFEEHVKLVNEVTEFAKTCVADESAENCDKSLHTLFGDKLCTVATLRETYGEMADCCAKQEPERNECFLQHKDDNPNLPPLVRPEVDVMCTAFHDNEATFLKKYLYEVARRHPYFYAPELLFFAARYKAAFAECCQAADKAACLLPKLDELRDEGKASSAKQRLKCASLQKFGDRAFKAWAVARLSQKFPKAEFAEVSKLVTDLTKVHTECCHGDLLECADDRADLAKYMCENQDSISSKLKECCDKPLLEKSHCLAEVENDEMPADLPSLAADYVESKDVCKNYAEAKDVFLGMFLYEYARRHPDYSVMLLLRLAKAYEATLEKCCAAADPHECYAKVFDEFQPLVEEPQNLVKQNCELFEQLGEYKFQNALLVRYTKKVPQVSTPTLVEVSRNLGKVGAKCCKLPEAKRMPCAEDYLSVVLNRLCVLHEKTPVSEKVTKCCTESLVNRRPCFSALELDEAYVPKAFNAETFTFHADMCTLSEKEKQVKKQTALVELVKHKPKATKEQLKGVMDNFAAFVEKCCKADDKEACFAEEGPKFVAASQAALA
B1 displayed a Kd of 0.89 nM, a koff of 0.00081 s⁻¹ and a kon of 910000 M⁻¹ s⁻¹.

In turn, B2 displayed a Kd of 2.3 nM, a koff of 0.0015 s⁻¹ and a kon of 640000 M⁻¹ s⁻¹.

For B3, the Kd was found to be 2.4 nM, the koff is 0.0015 s⁻¹ and the kon is 640000 M⁻¹ s⁻¹.

In the case of B4, the Kd worked out at 2.1 nM, the koff is 0.0014 s⁻¹ and the kon is 690000 M⁻¹ s⁻¹.

The next test addresses T1, human serum albumin. In words: ProteOn SPR; Nanobody on immobilized human serum albumin; Langmuir simultaneous ka/kd fit.
Procedure: (§1) PBS/Tween (phosphate buffered saline, pH7.4, 0.005% Tween20) was used as running buffer and the experiments were performed at 25° C. […] After immobilization, surfaces were deactivated with ethanolamine HCl (flow rate 30 μl/min). Nanobodies were injected for 2 minutes at 45 μl/min over the HSA surface to render a Nanobody capture level of approximately 200 RU. […] After each cycle (i.e. before a new Nanobody capture and blood sample injection step) the HSA surfaces were regenerated with a 2 minute injection of HCl (100 mM) at 45 μl/min. Sensorgram processing and data analysis was performed with ProteOn Manager 3.1.0 (Bio-Rad Laboratories, Inc.).
(§2) Also, for the serum albumin binders tested, a kinetic analysis was performed of the binding interaction with the immobilized serum albumin (Langmuir, simultaneous ka/kd model).
The molecule B5 returned a Kd of 7.3 nM, a koff of 0.0023 s⁻¹ and a kon of 310000 M⁻¹ s⁻¹.

B6: the Kd worked out at 7.6 nM, the koff was determined as 0.0021 s⁻¹ and the kon was found to be 280000 M⁻¹ s⁻¹.

Take B7: binding was put at a Kd of 12 nM, the koff came to 0.0033 s⁻¹ and the on-rate (kon) stood at 280000 M⁻¹ s⁻¹.

The target in the next test is T1, human serum albumin. The description is as above. The source holds these as a separate data set.
Procedure: as §1, §2
With B8, binding was characterised by a dissociation constant (Kd) of 8.3 nM, the koff turned out to be 0.0022 s⁻¹ and the kon worked out at 260000 M⁻¹ s⁻¹.

In the case of B9, the affinity, expressed as Kd, was 7.3 nM; the koff came to 0.0019 s⁻¹; the kon was determined as 260000 M⁻¹ s⁻¹.

The molecule B10 registered a Kd of 6.5 nM, a koff of 0.0018 s⁻¹ and a kon of 270000 M⁻¹ s⁻¹.

The next test concerns the target T1, human serum albumin. Described as above. This is another data set of the same source.
Procedure: as §1, §2
The molecule B11 showed a Kd of 30 nM, a koff of 0.0044 s⁻¹ and a kon of 150000 M⁻¹ s⁻¹.

The molecule B12 displayed a Kd of 16 nM, a koff of 0.0017 s⁻¹ and a kon of 110000 M⁻¹ s⁻¹.

Regarding B13, the affinity, expressed as Kd, was 30 nM; the koff worked out at 0.0022 s⁻¹; the kon came out at 72000 M⁻¹ s⁻¹.

The next test concerns the target T1, human serum albumin. The test is described as above. This is another data set of the same source.
Procedure: as §1, §2
For the molecule B14, the Kd was found to be 20 nM, the koff is 0.0032 s⁻¹ and the kon was 160000 M⁻¹ s⁻¹.

Turning to B15, the Kd stood at 11 nM, the koff amounted to 0.0017 s⁻¹ and the on-rate (kon) turned out to be 160000 M⁻¹ s⁻¹.

Turning to B16, binding was put at a Kd of 22 nM, the koff came to 0.0026 s⁻¹ and the kon was determined as 120000 M⁻¹ s⁻¹.

The target in a further test is T1, human serum albumin. The test is described as above. The source holds these as a separate data set.
Procedure: as §1, §2
Regarding B17, binding was characterised by a dissociation constant (Kd) of 7.2 nM, the koff was found to be 0.0015 s⁻¹ and the kon stood at 200000 M⁻¹ s⁻¹.

Regarding B18, the Kd worked out at 7.3 nM, the koff was 0.0016 s⁻¹ and the kon was 220000 M⁻¹ s⁻¹.

Turning to B19, the Kd was determined as 3.1 nM, the koff came out at 0.0036 s⁻¹ and the kon is 1.2e+06 M⁻¹ s⁻¹.

The next test deals with T1, human serum albumin. The description is as above. The source holds these as a separate data set.
Procedure: as §1, §2
With B20, the Kd stood at 24 nM, the koff was determined as 0.0026 s⁻¹ and the kon was determined as 110000 M⁻¹ s⁻¹.

The molecule B21 gave a Kd of 82 nM, a koff of 0.0051 s⁻¹ and a kon of 62000 M⁻¹ s⁻¹.
